The RNAGym collection of RNA variant scans (doi:10.7554/elife.80360)

B1: HDV Ribozyme (parent)
chain: GGCCGGCAUGGUCCCAGCCUCCUCGCUGGCGCCGGCUGGGCAACAUUCCGAGGGGACCGUCCCCUCGGUAAUGGCGAAUGGGACCCA

Variants of: B1
Experiment: self-cleavage, relative activity (ratio to wild type); higher = more cleavage; co-transcriptional

Going from G50A G68C to G50A G68A, the self-cleavage rises from 0.631 to 0.957.

First: C49A A83G
Second: C49U C85A
The self-cleavage of the first is lower: 0.546 for the first, 1.17 for the second.

Compared with A51C G53C, C48G G68C is higher in self-cleavage: 0.196 for the first, 1.14 for the second.

Compared with C49U C57A, G52A C86A is lower in self-cleavage: 1.07 for the first, 0.9 for the second.

Going from A51C A56G to C49A G54U, the self-cleavage falls from 0.831 to 0.734.

Going from C49A G54A to C49G G76U, the self-cleavage rises from 0.589 to 1.17.

First: C49G U79C
Second: C48G G81C
The self-cleavage of the first is higher: 0.631 for the first, 0.185 for the second.

Compared with C48G G81A, A51G G55C is lower in self-cleavage: 0.489 for the first, 0.481 for the second.

Going from C48G G53A to G52C A56U, the self-cleavage rises from 1.06 to 1.12.

Going from G52C A56G to G52C A56C, the self-cleavage rises from 0.851 to 0.95.

Going from C49U G55A to C49U G52U, the self-cleavage falls from 0.866 to 0.687.

First: C49A G67U
Second: G50A A77G
The self-cleavage of the first is higher: 0.945 for the first, 0.743 for the second.

First: G52C A87U
Second: C48U G53C
The self-cleavage of the first is higher: 1 for the first, 0.997 for the second.

First: C49A C64A
Second: G52A G54U
The self-cleavage of the first is lower: 0.284 for the first, 0.815 for the second.

Compared with G52A G54A, C48U G74A is lower in self-cleavage: 0.9 for the first, 0.517 for the second.

Compared with C49A G59A, C48U C64A is lower in self-cleavage: 0.938 for the first, 0.554 for the second.

Compared with C48G U72C, C49G A78G is lower in self-cleavage: 0.449 for the first, 0.266 for the second.

Going from A51C A87C to G50U G74A, the self-cleavage falls from 0.937 to 0.453.

Going from G50U G74C to C49G C84A, the self-cleavage rises from 0.214 to 0.652.

First: C49G C84G
Second: A51U A56G
The self-cleavage of the first is lower: 0.297 for the first, 1.11 for the second.

Compared with G50U A51C, C49A C62A is lower in self-cleavage: 0.889 for the first, 0.81 for the second.

Compared with C49A C62U, A51G U65C is higher in self-cleavage: 0.933 for the first, 1.26 for the second.

Going from G50A G76U to C49U C86G, the self-cleavage rises from 1.01 to 1.16.

Going from C49U C86U to C49G G50U, the self-cleavage falls from 0.882 to 0.47.

Going from C49G C66G to G52A U60G, the self-cleavage rises from 0.665 to 0.897.

Compared with G52A U60A, C49A U60C is lower in self-cleavage: 0.975 for the first, 0.78 for the second.

Going from C49U C75A to G52A G76A, the self-cleavage rises from 0.196 to 1.05.

Going from G52A G76C to A51G C57A, the self-cleavage falls from 1.24 to 0.877.

Compared with A51G C63A, C48U A87U is higher in self-cleavage: 0.734 for the first, 0.942 for the second.

Compared with A51C G59C, A51C G59U is lower in self-cleavage: 0.807 for the first, 0.762 for the second.

First: C49G A71U
Second: C49G A71G
The self-cleavage of the first is higher: 1.04 for the first, 0.72 for the second.

First: A51U A71G
Second: G52A G55A
The self-cleavage of the first is higher: 0.91 for the first, 0.893 for the second.

Going from G50C C84A to G50C U69A, the self-cleavage rises from 0.743 to 0.831.

First: G50C U69G
Second: G50A C75G
The self-cleavage of the first is higher: 1.05 for the first, 0.0852 for the second.

Going from A51G A77C to A51G A77U, the self-cleavage rises from 0.322 to 0.682.

Going from G50A G55U to G52C A78U, the self-cleavage falls from 1.11 to 0.315.

First: G52C A78G
Second: A51G A56C
The self-cleavage of the first is higher: 0.787 for the first, 0.733 for the second.

Going from A51G A56U to C49A G74U, the self-cleavage falls from 1 to 0.415.

Compared with G50C G76U, G52A U69A is higher in self-cleavage: 1.04 for the first, 1.05 for the second.

First: C49A U65C
Second: C49A U65G
The self-cleavage of the first is higher: 0.923 for the first, 0.539 for the second.

Going from G50A A56G to G50A C63U, the self-cleavage falls from 1.15 to 1.13.

Compared with C48U G82C, C49G G54U is higher in self-cleavage: 0.196 for the first, 0.519 for the second.

Going from A51G C86G to A51C G80C, the self-cleavage falls from 0.702 to 0.0437.

First: G50A G54U
Second: G50C G53U
The self-cleavage of the first is higher: 0.852 for the first, 0.338 for the second.

Going from G50C G53A to A51C G67C, the self-cleavage rises from 0.665 to 0.886.

First: C49A G53U
Second: G50U C85U
The self-cleavage of the first is lower: 0.608 for the first, 1.02 for the second.

Compared with G52A C62G, G52A A71C is higher in self-cleavage: 0.397 for the first, 0.744 for the second.

Compared with G50A C57A, G50A C57U is higher in self-cleavage: 0.972 for the first, 1 for the second.

First: G50C G68U
Second: G50C G68C
The self-cleavage of the first is higher: 0.597 for the first, 0.249 for the second.

Going from G50U G73A to G50A G81C, the self-cleavage falls from 0.634 to 0.225.

Compared with G50A G81A, G50A G81U is lower in self-cleavage: 0.415 for the first, 0.281 for the second.

Going from G50A U72A to C49U U69G, the self-cleavage rises from 0.677 to 1.16.

Compared with C49U U69A, A51C U72C is lower in self-cleavage: 0.95 for the first, 0.475 for the second.

Compared with C49A G55C, C49U A78C is lower in self-cleavage: 0.927 for the first, 0.188 for the second.

C48U C58A and C48U C58G are the same in self-cleavage: 1.06 for the first, 1.06 for the second.

First: A51G C58G
Second: G50C G73A
The self-cleavage of the first is higher: 0.969 for the first, 0.407 for the second.

First: A51G C62U
Second: C48G G80C
The self-cleavage of the first is higher: 1.01 for the first, 0.262 for the second.

Compared with G50A C66U, G50A C66G is higher in self-cleavage: 0.989 for the first, 1.05 for the second.

Going from C49G A70G to G50U G53A, the self-cleavage rises from 0.733 to 0.971.

First: G50U G53C
Second: C49A G50C
The self-cleavage of the first is lower: 0.437 for the first, 1.15 for the second.

First: A51G A87G
Second: A51G A87C
The self-cleavage of the first is higher: 1 for the first, 0.751 for the second.

Compared with A51C G68C, A51C G68A is higher in self-cleavage: 0.762 for the first, 0.916 for the second.

First: G50U G80C
Second: G50A A78C
The self-cleavage of the first is lower: 0.111 for the first, 0.138 for the second.

First: G50A A78G
Second: G50A A87G
The self-cleavage of the first is lower: 0.923 for the first, 1.01 for the second.

Compared with C49A C57A, C49G C63G is lower in self-cleavage: 0.875 for the first, 0.475 for the second.

Compared with C49G C63U, G50C C61A is higher in self-cleavage: 0.815 for the first, 0.865 for the second.

Compared with C48U C86G, C48U C86A is lower in self-cleavage: 1.14 for the first, 0.985 for the second.

First: C48U C86U
Second: A51G A83C
The self-cleavage of the first is higher: 1.09 for the first, 0.199 for the second.

First: G52A G53A
Second: C48U G52U
The self-cleavage of the first is higher: 0.89 for the first, 0.577 for the second.

Going from C49G G52C to C49G G52A, the self-cleavage rises from 0.287 to 0.543.

Compared with C48U A71G, G50U G52C is lower in self-cleavage: 1.03 for the first, 0.803 for the second.

First: G50C A56U
Second: G50C A56G
The self-cleavage of the first is higher: 0.935 for the first, 0.734 for the second.

Going from C48G U60A to A51C C63A, the self-cleavage falls from 0.864 to 0.475.

First: A51C C63G
Second: A51U U60A
The self-cleavage of the first is lower: 0.322 for the first, 1.14 for the second.

Compared with C48U G50U, G50A C86U is higher in self-cleavage: 0.742 for the first, 1.06 for the second.

Compared with G50A C86A, A51G A78U is lower in self-cleavage: 0.931 for the first, 0.156 for the second.

Going from G50C U72C to G52A A56C, the self-cleavage rises from 0.494 to 1.11.

A51U G54A and C49U A56U are the same in self-cleavage: 0.973 for the first, 0.973 for the second.

Compared with A51C U60C, C49G G74A is lower in self-cleavage: 1.15 for the first, 0.132 for the second.

Compared with C49A A71U, G52A C85G is higher in self-cleavage: 0.849 for the first, 1 for the second.

Going from A51C C64U to A51C C64G, the self-cleavage rises from 0.9 to 1.09.

Going from C49U C84A to G50C A78G, the self-cleavage falls from 0.786 to 0.584.

First: G50C A78C
Second: A51U C62A
The self-cleavage of the first is lower: 0.188 for the first, 0.759 for the second.

With G50A C61G the self-cleavage was 0.91.
